# T1: C3-HIS integrase (E. coli minicircle) (Bacteriophage lambda, UniProt P03700 SEQ:1-356)
# T1 chain: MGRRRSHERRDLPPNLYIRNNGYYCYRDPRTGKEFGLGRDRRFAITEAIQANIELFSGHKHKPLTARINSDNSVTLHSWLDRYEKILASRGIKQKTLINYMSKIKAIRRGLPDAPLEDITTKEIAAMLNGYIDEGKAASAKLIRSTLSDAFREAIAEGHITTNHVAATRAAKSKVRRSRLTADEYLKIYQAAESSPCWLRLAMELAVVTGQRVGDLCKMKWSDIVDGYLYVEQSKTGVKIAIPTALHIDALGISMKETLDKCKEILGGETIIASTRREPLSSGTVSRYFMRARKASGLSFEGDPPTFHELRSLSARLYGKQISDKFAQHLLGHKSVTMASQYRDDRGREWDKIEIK
# Molecular target: T1, C3-HIS integrase (E. coli minicircle)
# Assay: cell_activity; E. coli TG1 chromosomal attB integration; 27 colonies, ~90% correct
# Conditions: tags: His tag
# Source text: The present example follows the methodology depicted in FIG. 2. C3INT-HIS-PET22b(+) was amplified with petF2 (SEQ ID NO: 10) and petR (SEQ ID NO: 11) and the PCR product subsequently intramolecularly ligated to produce a C3INT-HIS minicircle. attP-PET22b(+) was amplified with attP-F (SEQ ID NO: 12) and attPSOE-R (SEQ ID NO: 13) while PET22b(+) was amplified with TEM1prom-F (SEQ ID NO: 14) and TEM1promR (SEQ ID NO: 15) which produced PCR products encoding attP and ampicillin-resistant gene respectively. Splice overlap extension PCR (SOE-PCR) was carried out with these two PCR products using attP-F (SEQ ID NO: 12) and TEM1prom-R (SEQ ID NO: 15). The PCR product was subsequently intramolecularly ligated to produce attP-TEM1 minicircle. 100 ng of C3INT-HIS minicircle and 100 ng attP-TEM1 minicircle were combined and electroporated to 25 μL electrocompetent TG1 cells. The cells were allowed to recover for 1 hr before being plated on varying concentrations of ampicillin-LB agar plates (0.01 mg/mL, 0.02 mg/mL, 0.05 mg/mL, 0.07 mg/mL and 0.1 mg/mL). Incubation was carried out at 37° C. for 12-14 hrs to allow for expression of C3 integrase and chromosomal integration of the ampicillin-resistance cassette by C3 integrase. […]
binder,measurement,value
attB ; attP (dsDNA ; dsDNA) DNA 1: CTGCTTTTTTATACTAACTTG DNA 2: CAAGTTAGTATAAAAAAGCAG DNA 3: CAGCTTTTTTATACTAAGTTG DNA 4: CAACTTAGTATAAAAAAGCTG,binding signal,~12 fold vs Int-h/218
